Like-named read-outs stand apart in the source and are kept apart here.
T1: human MICA002 on cells (human)
T1 chain: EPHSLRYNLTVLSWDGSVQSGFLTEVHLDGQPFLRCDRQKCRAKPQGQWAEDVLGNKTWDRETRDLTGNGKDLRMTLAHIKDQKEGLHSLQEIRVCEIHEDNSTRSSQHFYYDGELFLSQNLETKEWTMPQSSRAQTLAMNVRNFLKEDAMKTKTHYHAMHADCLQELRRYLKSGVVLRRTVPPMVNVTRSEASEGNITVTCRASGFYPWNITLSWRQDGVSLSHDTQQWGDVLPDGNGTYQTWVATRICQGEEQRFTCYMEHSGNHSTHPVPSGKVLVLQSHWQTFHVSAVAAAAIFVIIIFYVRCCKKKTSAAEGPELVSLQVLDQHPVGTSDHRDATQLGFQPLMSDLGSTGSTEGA

T2: MICA002-ECD-HISAvi (human, UniProt Q29983 24-308)
T2 construct: also called MICA002 polypeptide
T2 chain: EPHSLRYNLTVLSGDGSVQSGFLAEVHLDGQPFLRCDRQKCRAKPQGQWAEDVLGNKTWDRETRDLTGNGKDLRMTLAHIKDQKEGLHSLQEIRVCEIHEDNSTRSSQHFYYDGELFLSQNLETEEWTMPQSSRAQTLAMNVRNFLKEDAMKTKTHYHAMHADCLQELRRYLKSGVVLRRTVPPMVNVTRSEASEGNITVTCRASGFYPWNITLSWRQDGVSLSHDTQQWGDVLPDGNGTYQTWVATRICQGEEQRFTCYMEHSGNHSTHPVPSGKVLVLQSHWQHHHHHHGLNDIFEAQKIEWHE

T3: MICA004-ECD-HISAvi (human)
T3 construct: also called MICA004 polypeptide
T3 chain: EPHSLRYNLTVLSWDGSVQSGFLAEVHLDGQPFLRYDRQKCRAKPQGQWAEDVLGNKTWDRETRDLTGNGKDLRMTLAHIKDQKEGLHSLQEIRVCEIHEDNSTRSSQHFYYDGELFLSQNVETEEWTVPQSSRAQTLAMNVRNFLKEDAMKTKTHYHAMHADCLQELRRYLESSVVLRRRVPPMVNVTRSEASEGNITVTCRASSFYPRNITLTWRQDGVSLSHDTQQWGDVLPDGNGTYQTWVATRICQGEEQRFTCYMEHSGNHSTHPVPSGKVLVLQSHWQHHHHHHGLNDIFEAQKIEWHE

T4: MICA008-ECD-HISAvi (human)
T4 construct: Two sources under one name in the two kinetic assays; also called MICA008 polypeptide
T4 chain: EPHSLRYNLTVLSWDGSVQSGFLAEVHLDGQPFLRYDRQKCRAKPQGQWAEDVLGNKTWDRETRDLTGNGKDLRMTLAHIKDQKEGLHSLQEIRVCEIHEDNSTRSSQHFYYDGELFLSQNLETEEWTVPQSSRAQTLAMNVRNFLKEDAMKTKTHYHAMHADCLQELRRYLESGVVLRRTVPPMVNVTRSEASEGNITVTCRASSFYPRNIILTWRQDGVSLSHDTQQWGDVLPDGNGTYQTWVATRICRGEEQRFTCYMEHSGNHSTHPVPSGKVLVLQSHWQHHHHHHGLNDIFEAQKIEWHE

T5: MICB005-ECD-HISAvi (human, UniProt Q29980 24-309)
T5 construct: Two sources under one name in the two kinetic assays; also called MICB005 polypeptide
T5 sequence: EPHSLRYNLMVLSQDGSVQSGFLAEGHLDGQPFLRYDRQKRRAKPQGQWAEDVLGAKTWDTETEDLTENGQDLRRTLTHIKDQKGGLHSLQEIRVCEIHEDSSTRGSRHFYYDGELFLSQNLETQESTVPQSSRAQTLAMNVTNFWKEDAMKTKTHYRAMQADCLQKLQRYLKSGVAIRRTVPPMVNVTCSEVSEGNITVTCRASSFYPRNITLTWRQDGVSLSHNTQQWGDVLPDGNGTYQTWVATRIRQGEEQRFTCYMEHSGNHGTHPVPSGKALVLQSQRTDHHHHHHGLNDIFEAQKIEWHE


Assays:
human MICA002 on cells [1] = biological target: T1, human MICA002 on cells; experiment: flow cytometry, CHO-MICA002 cells
Procedure: CHO-MICA002 cells were incubated with titrated anti-MICA/B antibodies and then APC-labeled anti-human Fc antibody. […] The antibody binding signals of APC (gMFI) to MICA/B were measured by flow cytometry.
(§1) After an incubation time of 30 minutes, the plate was centrifuged and cells were washed with PBS three times. […] After mixing for 30 minutes at room temperature, cells were washed with PBS twice. Fluorescent signal was detected and quantified by flow cytometry (Attune™ CytPix™, ThermoFisher) within the population of live cells (viability dye PI negative).

human MICA004 on cells [2] = biological target: T6, human MICA004 on cells (human); experiment: flow cytometry, CHO-MICA004 cells
T6 construct: whole, on cells; also called CHO-MICA004; C1R-MICA004
Procedure: (§2) IgG1 is an isotype control (IgG). The antibody binding signals of APC (gMFI) to MICA/B were measured by flow cytometry.
as §1

human MICA008 on cells [3] = biological target: T7, human MICA008 on cells (human); experiment: flow cytometry, CHO-MICA008 cells
T7 construct: whole, on cells; also called CHO-MICA008; C1R-MICA008
Procedure: as §2, §1

human MICB005 on cells [4] = biological target: T8, human MICB005 on cells (human); experiment: flow cytometry, CHO-MICB005 cells
T8 construct: whole, on cells; also called CHO-MICB005; C1R-MICB005
Procedure: as §2, §1

human MICA002 on cells [5] = biological target: T1, human MICA002 on cells; experiment: flow cytometry, CHO-MICA002 cells
human MICA004 on cells [6] = biological target: T6, human MICA004 on cells; experiment: flow cytometry, CHO-MICA004 cells; remark: listed apart in the source
human MICA008 on cells [7] = biological target: T7, human MICA008 on cells; experiment: flow cytometry, CHO-MICA008 cells; remark: listed apart in the source
human MICB005 on cells [8] = biological target: T8, human MICB005 on cells; experiment: flow cytometry, CHO-MICB005 cells; remark: listed apart in the source
human MICA002 on cells [9] = biological target: T1, human MICA002 on cells; experiment: flow cytometry, CHO-MICA002 cells
human MICA004 on cells [10] = biological target: T6, human MICA004 on cells; experiment: flow cytometry, CHO-MICA004 cells; remark: listed apart in the source
human MICB005 on cells [11] = biological target: T8, human MICB005 on cells; experiment: flow cytometry, CHO-MICB005 cells; remark: listed apart in the source
MICA002-ECD-HISAvi = biological target: T2, MICA002-ECD-HISAvi; experiment: SPR (Carterra); antibody captured by anti-human Fc, monomeric ECD antigen injected
Procedure: (§3) The dissociation kinetics were monitored for approximately 10 minutes. The chip surface was regenerated between binding cycles with 10 mM glycine HCl, pH 1.7. Binding kinetics were analyzed using software supplied by the manufacturer.

MICA004-ECD-HISAvi = biological target: T3, MICA004-ECD-HISAvi; experiment: as above
Procedure: as §3

MICA008-ECD-HISAvi = biological target: T4, MICA008-ECD-HISAvi; experiment: as above
Procedure: as §3

MICB005-ECD-HISAvi = biological target: T5, MICB005-ECD-HISAvi; experiment: as above
Procedure: as §3

human MICB005 on cells [12] = biological target: T8, human MICB005 on cells; experiment: flow cytometry on CHO-MICB005 cells; column HSA_1w (1 week in human serum at 37 C)
Procedure: (§4) The plate was centrifuged, and cells were washed with PBS three times. […] After incubation for 30 minutes at room temperature, cells were washed with PBS twice. Signals of APC were determined by flow cytometry (Attune™ CytPix™, ThermoFisher) within the population of live cells (viability dye PI negative).
(§5) The EC50 values were calculated based on non-linear fitting curves by GraphPad Prism software.

human MICB005 on cells [13] = biological target: T8, human MICB005 on cells; experiment: flow cytometry on CHO-MICB005 cells; column HSA_2w (2 weeks in human serum at 37 C)
Procedure: as §4, §5

T7 sequence (Q29983 whole entry): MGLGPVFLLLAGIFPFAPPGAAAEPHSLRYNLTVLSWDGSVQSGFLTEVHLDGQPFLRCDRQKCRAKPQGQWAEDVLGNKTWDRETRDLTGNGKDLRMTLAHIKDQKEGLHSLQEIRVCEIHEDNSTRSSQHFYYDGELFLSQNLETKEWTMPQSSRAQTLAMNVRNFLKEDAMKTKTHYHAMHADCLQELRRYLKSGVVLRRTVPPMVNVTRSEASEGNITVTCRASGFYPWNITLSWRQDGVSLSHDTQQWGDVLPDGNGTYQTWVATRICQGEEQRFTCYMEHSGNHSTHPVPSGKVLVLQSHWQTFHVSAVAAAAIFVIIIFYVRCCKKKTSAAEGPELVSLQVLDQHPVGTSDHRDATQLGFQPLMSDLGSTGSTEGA
T6 sequence (Q29983 whole entry): as above

Row | Binder | EC50 (human MICA002 on cells [1]) | EC50 (human MICA004 on cells [2]) | EC50 (human MICA008 on cells [3]) | EC50 (human MICB005 on cells [4]) | EC50 (human MICA002 on cells [5]) | EC50 (human MICA004 on cells [6]) | EC50 (human MICA008 on cells [7]) | EC50 (human MICB005 on cells [8]) | EC50 (human MICA002 on cells [9]) | EC50 (human MICA004 on cells [10]) | EC50 (human MICB005 on cells [11]) | Kd (MICA002-ECD-HISAvi) | Kd (MICA004-ECD-HISAvi) | Kd (MICA008-ECD-HISAvi) | Kd (MICB005-ECD-HISAvi) | EC50 (human MICB005 on cells [12]) | EC50 (human MICB005 on cells [13])
1 | 1D5 (antibody, human IgG1, kappa, V domains shown, also called ID5) VH: EIQLQQSGPELVKPGASVKVSCKASGYAFTSQNIYWVKQSHGKSLEWIGYIEPYNVVPMYNPKFKGKATLTVDKSSSSAYIHLNSLTSEDSAIYYCARSGSSNFDYWGQGTTLTVSS VL: EIILTQSPTTMAASPGEKITITCSASSSISSHYLHWYQQKSGFSPKLLIYRTSNLASGVPARFSGSGSGTSYSLTIGTMEAEDVATYYCQQGSSLPLTFGAGTKVEIKR | 0.19 µg/mL | 0.157 µg/mL | 0.028 µg/mL | 0.152 µg/mL | 0.209 µg/mL | 0.051 µg/mL | 0.04 µg/mL | 0.142 µg/mL | 0.301 µg/mL | 0.193 µg/mL | 0.198 µg/mL | 0.032 nM | 0.52 nM | 0.269 nM | 0.96 nM | 0.229 µg/mL | 0.287 µg/mL
2 | 3F9 (antibody, human IgG1, kappa, V domains shown, also called benchmark 3F9) VH: QVQLVESGGGLVKPGGSLRLSCAASGFTFSNYAMSWIRQAPGKGLEWVSYISPGGDYIYYADSVKGRFTISRDNAKNSLYLQMNSLRAEDTAVYYCTTDRRHYGSYAMDYWGQGTLVTVSS VL: DIVMTQSPLSLPVTPGEPASISCRSSKSLLHSNLNTYLYWFLQKPGQSPQILIYRMSNLASGVPDRFSGSGSGTAFTLKISRVEAEDVGVYYCMQHLEYPFTFGPGTKLEIKR | 0.352 µg/mL | 0.443 µg/mL | 0.119 µg/mL | 0.572 µg/mL | – | – | – | – | 0.857 µg/mL | 0.89 µg/mL | 1.08 µg/mL | 1.65 nM | 2.78 nM | 2 nM | 5.47 nM | 0.804 µg/mL | 0.784 µg/mL

From patent US20250368742A1 (D2M BIOTHERAPEUTICS, published 2025)
